B1: REGN8023 (antibody, human IgG4 S228P, kappa, V domains shown)
VH: EVQLVESGGGLVKPGGSLRISCAASGFIFVDYAMHWVRQAPGKGLEWVSGISWNSGSIGYADSVKGRFTISRDNAKKSLYLQMSGLRPEDTALYYCVKSGFYYVRSYFDNWGQGTLVTVSS
VL: DIVMTQSPLSLPVTPGEPASISCRSSQSLLDSDDGNTYLDWYLRKPGQSPQLLIYTLSYRASGVPDRFSGSGSGTDFTLKISRVEADDVGVYYCMQRIEFPLTFGGGTKVEIKR
notes: fully human; human IgG4 Fc with hinge S108P; also called mAb37699
B2: REGN7999 (antibody, human IgG4 S228P, kappa, V domains shown)
VH: EVQLVESGGGLVQPGGSLRLSCAASGFTFSSYAMTWVRQAPGKGLEWVSAISGSDTSTYYADSVKGRFTISRDNSKNTLFLQMNSLRAEDTAVYYCAKHQDYDFSYYYSAMDVWGQGTTVTVSS
VL: DIQMTQSPSSLSASVGDRVIITCRASQDFNSWLAWYQQKPGKAPKLLIYAASSLQSGVPSRFSGSGSGTDFTLTISSLQPEDFATYYCQQTDSFPFTFGPGTKVDIKR
notes: fully human; human IgG4 Fc with hinge S108P; also called mAb41450
B3: REGN7974 (antibody, human IgG4 S228P, kappa, V domains shown)
VH: EVQLVESGGGLVQPGRSLRLSCIASGFNFGDYGMSWVRQAPGKGLEWVGFIRSKAYGGTTEYAASVKGRFTISRDDSKSIAYLQMNSLKTEDAAMYYCSRDYYDILTGYYGDYWGQGTLVTVSS
VL: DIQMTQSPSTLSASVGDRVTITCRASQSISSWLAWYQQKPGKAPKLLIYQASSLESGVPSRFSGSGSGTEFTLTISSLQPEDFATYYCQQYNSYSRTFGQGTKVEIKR
notes: fully human; human IgG4 Fc with hinge S108P; also called mAb41422
B4: REGN7977 (antibody, V domains shown)
VH: EVQLVESGGGLVKPGGSLRVSCAASGVTFSNVWMSWVRQVPGKGLEWVGRIKSKTDGGTTDYAAPVKGRFTISKDDSKNTLFLQMNSLKTEDTAVYYCTTETGDFWSGYYPRFQHWGQGTLVTVSS
VL: DIQMTQSPSSLSASVGDRVTITCRASQYISTYLNWYQQKPGKAPSLLIYAASSLQSGVPSRFSGSGSGTDFTLTISSLQPEDFASYSCQQSYSTPPYTFGQGTKLEIKR
notes: fully human; human IgG4 Fc with hinge S108P; also called mAb41465
B5: REGN7969 (antibody, human IgG4 S228P, kappa, V domains shown)
VH: QVQLVESGGGVVQPGRSLRLSCAASGFTFNNYGMHWVRQAPGKGLEWVAIISYDGSNEYYSDSVKGRFTISRDNSKNTLYLQMNSLRAEDTAVYYCARDQDYGGNLFHYWGQGTLVTVSS
VL: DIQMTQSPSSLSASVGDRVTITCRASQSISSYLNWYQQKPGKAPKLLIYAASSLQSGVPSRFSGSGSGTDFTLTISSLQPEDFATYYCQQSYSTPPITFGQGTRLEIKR
notes: fully human; human IgG4 Fc with hinge S108P; also called mAb37746
B6: REGN7971 (antibody, human IgG4 S228P, kappa, V domains shown)
VH: B5 VH with N30S, N31T, E58D, S61L, S85N, R98K, D101G, H108A, Y109S
VL: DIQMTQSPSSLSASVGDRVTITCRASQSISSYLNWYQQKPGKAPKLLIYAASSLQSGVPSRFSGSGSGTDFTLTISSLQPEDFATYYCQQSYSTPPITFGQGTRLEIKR
notes: fully human; human IgG4 Fc with hinge S108P; also called mAb37763

Changes are numbered by the printed parent chain. In names and notes the source's numbering stands.

Results on 6 molecules are retold here after patent US20220411487A1 (Regeneron, published 2022).

One experiment has as its target T1, full length human TMPRSS6 with a C-terminal triple myc tag on HEK293.hHJV cells (HEK293.hHJV/3xMyc.hTMPRSS6) (human, UniProt Q8IU80 1-811).
T1 sequence: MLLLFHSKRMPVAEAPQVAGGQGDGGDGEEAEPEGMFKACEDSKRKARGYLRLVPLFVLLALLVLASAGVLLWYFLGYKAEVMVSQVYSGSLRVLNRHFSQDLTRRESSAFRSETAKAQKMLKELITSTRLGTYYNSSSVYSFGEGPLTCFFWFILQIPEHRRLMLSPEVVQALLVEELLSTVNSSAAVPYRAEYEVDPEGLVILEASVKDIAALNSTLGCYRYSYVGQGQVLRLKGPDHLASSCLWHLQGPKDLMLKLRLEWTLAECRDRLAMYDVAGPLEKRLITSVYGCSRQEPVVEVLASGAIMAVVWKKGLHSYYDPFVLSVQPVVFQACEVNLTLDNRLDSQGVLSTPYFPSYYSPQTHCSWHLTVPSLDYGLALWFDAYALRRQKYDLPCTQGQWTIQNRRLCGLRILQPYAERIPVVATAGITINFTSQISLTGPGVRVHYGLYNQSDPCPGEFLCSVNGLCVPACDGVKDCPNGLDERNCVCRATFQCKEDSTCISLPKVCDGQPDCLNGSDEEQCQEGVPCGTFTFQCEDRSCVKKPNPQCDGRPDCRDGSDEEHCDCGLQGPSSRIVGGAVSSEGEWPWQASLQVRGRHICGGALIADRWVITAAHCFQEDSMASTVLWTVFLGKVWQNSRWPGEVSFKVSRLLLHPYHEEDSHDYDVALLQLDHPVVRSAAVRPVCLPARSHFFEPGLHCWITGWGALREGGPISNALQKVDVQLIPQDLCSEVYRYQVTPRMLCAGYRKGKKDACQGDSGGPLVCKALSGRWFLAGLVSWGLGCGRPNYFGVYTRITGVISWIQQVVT
The experiment in a line: cell-based or functional assay.
With B1, the “IC50, soluble hHJV release (ELISA)” value worked out at 0.149 nM and the “Inhibition (%) of soluble hHJV release (ELISA)” value (from here on “Inhibition (%)”) is more than 99%.
Consider B2, for which the “IC50, soluble hHJV release (ELISA)” value was found to be 0.102 nM and the “Inhibition (%)” value is more than 99%.
The like results for B3 were, in that order, 0.154 nM and more than 99%.
Turning to B4, the “IC50, soluble hHJV release (ELISA)” value was found to be 0.127 nM and the “Inhibition (%)” value is more than 99%.
In the case of B5, the “IC50, soluble hHJV release (ELISA)” value was found to be 0.0712 nM and the “Inhibition (%)” value was more than 99%.
The matching figures for B6: 0.0774 nM and 89.9%.

Another experiment addresses T2, mfTMPRSS6_S751A-MMH (Macaca fascicularis, UniProt Q8IU80 77-811 (human entry)).
T2 construct: also called REGN5977; Macaca fascicularis TMPRSS6 extracellular domain with a S751A mutation and a C-terminal myc-myc-hexahistidine tag
T2 chain: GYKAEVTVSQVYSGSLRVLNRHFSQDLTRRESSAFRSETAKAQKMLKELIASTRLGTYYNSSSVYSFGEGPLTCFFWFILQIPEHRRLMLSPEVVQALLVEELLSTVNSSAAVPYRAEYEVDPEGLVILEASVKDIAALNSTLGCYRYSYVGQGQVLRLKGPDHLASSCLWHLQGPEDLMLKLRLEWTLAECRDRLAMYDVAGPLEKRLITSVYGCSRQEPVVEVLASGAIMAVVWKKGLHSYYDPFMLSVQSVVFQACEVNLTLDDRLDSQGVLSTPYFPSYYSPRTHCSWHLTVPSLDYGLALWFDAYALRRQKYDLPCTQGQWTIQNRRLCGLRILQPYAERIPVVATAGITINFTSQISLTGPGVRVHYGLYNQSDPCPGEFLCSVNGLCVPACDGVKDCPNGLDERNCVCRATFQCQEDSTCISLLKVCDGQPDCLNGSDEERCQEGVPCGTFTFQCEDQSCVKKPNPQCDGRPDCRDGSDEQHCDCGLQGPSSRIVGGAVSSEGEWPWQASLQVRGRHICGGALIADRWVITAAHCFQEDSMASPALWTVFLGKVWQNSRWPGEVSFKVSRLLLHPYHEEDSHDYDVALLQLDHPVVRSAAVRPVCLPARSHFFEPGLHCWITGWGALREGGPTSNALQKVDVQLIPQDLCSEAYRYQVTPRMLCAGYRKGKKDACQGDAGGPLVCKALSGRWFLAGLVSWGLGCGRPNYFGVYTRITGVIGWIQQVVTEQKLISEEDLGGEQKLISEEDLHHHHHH
The experiment in a line: SPR, mAb captured via anti-hFc, 37 C. As to the method: (§1) The equilibrium dissociation constant (KD) for TMPRSS6 binding to different TMPRSS6 monoclonal antibodies (mAbs) was determined using a real-time surface plasmon resonance biosensor using a Biacore 4000 instrument. All binding studies were performed in 10 mM HEPES, 150 mM NaCl, 3 mM EDTA, and 0.05% v/v Surfactant Tween-20, pH 7.4 (HBS-ET) running buffer at 25° C. and 37° C. The Biacore CM5 sensor chip surface was first derivatized by amine coupling with a human Fc specific mouse mAb to capture different TMPRSS6 mAbs. […] Different concentrations (100 nM to 3.7 nM, 3-fold serial dilution) of the TMPRSS6 reagent proteins prepared in HBS-EP running buffer were injected over the TMPRSS6 mAb captured surface for 150 seconds at a flow rate of 30 μL/min and their dissociation in HBS-ET running buffer was monitored for 10 minutes. At the end of each cycle, the TMPRSS6 mAb captured surface was regenerated using a 12 second injection of 20 mM phosphoric acid.
(§2) The association rate (kₐ) and dissociation rate (kd) were determined by fitting the real-time binding sensorgrams to a 1:1 binding model with mass transport limitation using Scrubber 2.0 (BioLogic Software) curve-fitting software. Binding dissociation equilibrium constant (KD) and dissociative half-life (t½) were calculated from the kinetic rates as: […]
Background: In SPR one partner is held on a chip, and binding of the other changes the refractive index at the surface.
As usually defined, the Kd is the concentration at which binding is half-saturated. A high value points to weaker binding. A word on the koff: it is a measure of how fast the partners let go of each other. High values mean fast dissociation, low ones slow dissociation. Broadly, the kon is the rate constant with which the complex forms. For orientation: t½ means the time in which the quantity being followed falls by half. Read a high t½ as slow decline. B1: the “100 nM Ag Bound” value stood at 206 RU, the Kd is 1 nM, the koff was 0.000634 s⁻¹ and the kon is 632000 M⁻¹ s⁻¹. Moreover, the t½ turned out to be 18 min.
As to B2, the “100 nM Ag Bound” value worked out at 143 RU, binding was characterised by a dissociation constant (Kd) of 0.75 nM, the koff was found to be 0.000306 s⁻¹ and the kon stood at 408000 M⁻¹ s⁻¹. For the same molecule, the t½ is 38 min.
For B3, the “100 nM Ag Bound” value was 183 RU, binding was put at a Kd of 16.1 nM, the koff was 0.00405 s⁻¹ and the kon was 251000 M⁻¹ s⁻¹. For the same molecule, the t½ came to 2.9 min.
The matching figures for B4: 133 RU, 11.9 nM, 0.00247 s⁻¹, 207000 M⁻¹ s⁻¹ and 4.7 min.
The matching figures for B5: 105 RU, 3.27 nM, 0.000924 s⁻¹, 283000 M⁻¹ s⁻¹ and 12 min.
The matching figures for B6: 160 RU, 1.68 nM, 0.00061 s⁻¹, 363000 M⁻¹ s⁻¹ and 19 min.

For a further experiment, the target named is T3, hTMPRSS6_S762A-MMH (human, UniProt Q8IU80 77-811).
T3 construct: also called REGN5330; human TMPRSS6_S762A-MMH
Nature of the experiment: SPR, mAb captured via anti-hFc, 37 C. The procedure: as §1, §2
As for B1, the “100 nM Ag Bound” value is 205 RU; the affinity, expressed as Kd, was 2.24 nM; the koff stood at 0.000935 s⁻¹; the kon turned out to be 418000 M⁻¹ s⁻¹. In addition, the t½ turned out to be 12 min.
The matching figures for B2: 129 RU, 2.3 nM, 0.000354 s⁻¹, 154000 M⁻¹ s⁻¹ and 33 min.
On to B3, for which the “100 nM Ag Bound” value was 206 RU; the affinity, expressed as Kd, was 21.2 nM; the koff was 0.00235 s⁻¹; the kon came out at 111000 M⁻¹ s⁻¹. The molecule further registered a t½ of 4.9 min.
Consider B4, for which the “100 nM Ag Bound” value was 134 RU, the Kd came out at 11 nM, the koff is 0.00124 s⁻¹ and the on-rate constant (kon) worked out at 113000 M⁻¹ s⁻¹. Moreover, the t½ was determined as 9 min.
The like results for B5 were, in that order, 110 RU, 4.4 nM, 0.000975 s⁻¹, 222000 M⁻¹ s⁻¹ and 12 min.
The matching figures for B6: 169 RU, 2.44 nM, 0.000637 s⁻¹, 261000 M⁻¹ s⁻¹ and 18 min.
